Experimental data as given in patent US20200270365A1 (JIANGSU HENGRUI MEDICINE, published 2020).
Read-outs that look alike come from different tables or passages of the source.

Experiments:
[1] = target: T1, PCSK9 protein inserted with biotin receiving peptide BP15 and His-tag: PCSK9-BP15-His6 (human, UniProt Q8NBP7 153-692; A8T644 31-152, biotin on the BP15 biotin receiving peptide (labeled during the expression)); experiment: competition ELISA, LDLR-FC coated, biotin PCSK9 + antibody
T1 construct: also called WT PCSK9; PCSK9 WT
Method: The blocking ability of PCSK9 antibodies according to the present invention for the binding of LDLR-FC (produced in-house, with sequence of SEQ ID NO: 8) and PCSK9 (SEQ ID NO: 5) was tested by measuring the amount of PCSK9 binding to LDLR in the presence of the antibodies.
(§1) LDLR-FC was diluted to 5 μg/ml with phosphate buffer and was added into the 96-well ELISA plate, kept at 4° C. overnight. The plate was washed and then blocked with Tris buffer (including 0.9 mM CaCl₂, 0.05% Tween 20 and 5% skim milk) at 37° C. for 2 hours. Then the plate was washed and 100 μl/well of mixture of biotin-labeled PCSK9 (diluted to 2 μg/ml with Tris buffer containing 0.9 mM CaCl₂, 0.05% Tween 20 and 1% skim milk) and antibody samples (diluted with Tris buffer containing 0.9 mM CaCl₂, 0.05% Tween 20 and 1% skim milk) was added and incubated at 37° C. for 1 hour. Then the plate was washed again and horseradish peroxidase-streptavidin (sigma, CAT #S2438) was added and incubated at 37° C. for 1 hour. Then the plate was washed and tetramethyl brenzidine solution was added for development. Finally, the stop buffer was added and OD450 value was measured on the Microplate reader, then IC50 value was calculated.

[2] = target: T2, PCSK9 D374Y mutant protein inserted with biotin receiving peptide BP15 and His-tag: PCSK9-D374Y-BP15-His6 (human, UniProt Q8NBP7 153-692; A8T644 31-152, biotin on the BP15 biotin receiving peptide); experiment: competition ELISA, LDLR-FC coated, biotin PCSK9-Y + antibody
T2 construct: also called PCSK9-Y; mutant PCSK9
Method: The blocking ability of PCSK9 antibodies according to the present invention for the binding of LDLR-FC and PCSK9-Y (mutant PCSK9, SEQ ID NO: 6) was tested by measuring the amount of PCSK9-Y binding to LDLR in the presence of the antibodies.
as §1, with “LDLR-FC (produced in-house, with sequence of SEQ ID NO: 8)” for “LDLR-FC”, “to 2” for “to 5”, “plate,” for “plate, kept”, “biotin-labeled mutant” for “biotin-labeled”, “to 1” for “to 2”

[3] = target: T1, PCSK9 protein inserted with biotin …; experiment: ELISA, biotin PCSK9 on streptavidin plate
Method: The binding ability of anti-PCSK9 antibodies of the present invention to PCSK9 protein (WT PCSK9, SEQ ID NO: 5) was detected by measuring the amounts of antibodies binding to PCSK9 immobilized on the ELISA plate.
(§2) Streptavidin (sigma, CAT #S4762) was diluted to 2 μg/ml with PBS and was added into a 96-well ELISA plate, at 4° C. for overnight. The plate was washed and then was blocked with Tris buffer (including 0.9 mM CaCl₂, 0.05% Tween 20 and 5% skim milk) at 37° C. for 2 hours. Then the plate was washed again and 100 μl/well of biotin-labeled PCSK9 (produced in-house, diluted with Tris buffer containing 0.9 mM CaCl₂, 0.05% Tween 20 and 1% skim milk) was added and incubated at 37° C. for 1 hour. After the wash step various concentrations of diluted PCSK9 antibody samples was added to the plate and incubated at 37° C. for 1 hour. […] Then the plate was washed and tetramethyl brenzidine solution was added for development. Finally, the stop buffer was added and the OD450 value was measured on the Microplate reader, and then EC50 was calculated.

[4] = target: T2, PCSK9 D374Y mutant protein inserted …; experiment: competition ELISA, LDLR-FC coated, biotin PCSK9-Y + antibody; remark: listed apart in the source
Method: (§3) Different back mutations were selected for combination (Table 3) after CDR grafting. The designed humanized sequences were fully-gene synthesized and heavy and light chains were combined with each other for mammalian expression (Table 4). After purification of the protein, the blocking activity test was performed similarly to that for chimeric antibodies (see test 3 and 4 for the method and the results are shown in Table 5). Some cloned proteins were selected and were determined for dissociation constants by Surface Plasmon resonance (SPR) (Biacore X100, GE, see test 5). The sample to be tested was captured by the Amine-Coupling Anti-Fc pAb (GE) on the CM5 chip (GE). PCSK9 (SEQ ID NO: 1) or PCSK9-Y (SEQ ID NO: 4) was the mobile phase, working buffer was 1×HBS-EP⁺, pH 7.4, regeneration bu0ffer was 3 M MgCl₂.
(§4) LDLR-FC (produced in-house, with sequence of SEQ ID NO: 8) was diluted to 2 μg/ml with phosphate buffer and was added into the 96-well ELISA plate, at 4° C. overnight. The plate was washed and then blocked with Tris buffer (including 0.9 mM CaCl₂, 0.05% Tween 20 and 5% skim milk) at 37° C. for 2 hours. […] Finally, the stop buffer was added and OD450 value was measured on the Microplate reader, then IC50 value was calculated.

[5] = target: T3, PCSK9 with His-tag: PCSK9-His6 (human, UniProt Q8NBP7 153-692; A8T644 31-152); experiment: SPR Biacore X100, antibody captured by anti-Fc pAb on CM5, PCSK9 mobile phase
T3 construct: also called huPCSK9; human PCSK9 antigen
Method: as §3

[6] = target: T4, PCSK9-D374Y mutant protein with His-tag: PCSK9-D374Y-His6 (human, UniProt Q8NBP7 153-692; A8T644 31-152); experiment: SPR Biacore X100, antibody captured by anti-Fc pAb on CM5, PCSK9-Y mobile phase
T4 construct: also called PCSK9-Y; PCSK9-Y antigen
Method: as §3

[7] = target: T2, PCSK9 D374Y mutant protein inserted …; experiment: ELISA, biotin PCSK9-Y on streptavidin plate
Method: The binding ability of anti-PCSK9 antibodies of the present invention to PCSK9-Y protein (mutant PCSK9, SEQ ID NO: 6) was detected by measuring the amounts of antibodies binding to PCSK9-Y immobilized on the ELISA plate.
as §2, with “hours. The” for “hours. Then the”, “washed” for “washed again”, “biotin-labeled PCSK9-Y” for “biotin-labeled PCSK9”, “wash step,” for “wash step”, “samples were” for “samples was”

[8] = target: T1, PCSK9 protein inserted with biotin …; experiment: competition ELISA, LDLR-FC coated, biotin PCSK9 + antibody; remark: listed apart in the source
Method: as §3
as §4, with “LDLR-FC” for “LDLR-FC (produced in-house, with sequence of SEQ ID NO: 8)”, “to 5” for “to 2”, “plate, kept” for “plate,”

[9] = target: T3, PCSK9 with His-tag: PCSK9-His6; experiment: SPR Biacore, antibody captured by human Fab capture molecule on CM5, PCSK9-His6 mobile phase
Description: According to the method described in the human Fab capture kit (Cat. #28-9583-25, GE), the human Fab capture molecule was covalently linked to the CM5 biochip (Cat. #BR-1000-12, GE) so that the PCSK9 antibodies of the present invention were affinity captured. Then, human PCSK9 antigen (PCSK9 with His tag: PCSK9-His6, SEQ ID NO: 1) flowed through the surface of the biochip, and the reaction signal was detected in real time using a Biacore instrument to obtain the association and dissociation curves. Finally, the affinity values were obtained by fitting and are shown at table 16 below. After each cycle of dissociation was finished, the biochip was washed and regenerated with regeneration solution in the human Fab capture kit (GE).

B1: humanized antibody h011-3 (antibody, V domains shown)
VH: QVQLVQSGAEVKKPGASVKVSCKASGYTFTGYTIHWVRQAPGQGLEWMGYINPSSTYTKFNQKFKDRVTMTRDTSISTAYMELSRLRSDDTAVYYCARERIYSNYWFFDVWGQGTTVTVSS
VL: DIVMTQSPSSLSASVGDRVTITCKASQNVYTAVAWYQQKPGKSPKLLIYSASNRYTGVPSRFSGSGSGTDFTLTISSLQPEDFATYFCQQYSSYPYTFGGGTKVEIK
notes: h011_VH.1 with h011_VL.1B
- IC50 [1]: 0.681 µg/mL
- IC50 [2]: 5.49 µg/mL
- EC50 [3]: 0.00719 µg/mL
- IC50 [4]: 5.13 µg/mL
- Kd [5]: 0.263 nM
- koff [5]: 1.88e-05 s⁻¹
- kon [5]: 71300 M⁻¹ s⁻¹
- Kd [6]: 34.5 nM
- koff [6]: 0.00578 s⁻¹
- kon [6]: 168000 M⁻¹ s⁻¹
- EC50 [7]: 1.78 µg/mL
- IC50 [8]: 0.205 µg/mL

B2: h011-3133-WT: h011-3133-IgG1 format (antibody)
heavy: not shown
light: DIVMTQSPSSLSASVGDRVTITCKASQNVYTAVAWYQQKPGKSPKLLIYSASNRYTGVPSRFSGSGSGTDFTLTISSLQPEDFATYFCQQYSSYPYTFGGGTKVEIKRTVAAPSVFIFPPSDEQLKSGTASVVCLLNNFYPREAKVQWKVDNALQSGNSQESVTEQDSKDSTYSLSSTLTLSKADYEKHKVYACEVTHQGLSSPVTKSFNRGEC
notes: Human IgG1 heavy chain constant region, human kappa light chain
- Kd [9]: < 0.0526 nM

B3: h011-3133-YTE: h011-3133-IgG1-YTE format (antibody)
heavy: QVQLVQSGAEVKKPGASVKVSCKASGYTFTGYEIHWVRQAPGQGLEWMGYINPSATYTKFNQKFKDRVTMTRDTSISTAYMELSRLRSDDTAVYYCARERIYSNYWFFDVWGQGTTVTVSSASTKGPSVFPLAPSSKSTSGGTAALGCLVKDYFPEPVTVSWNSGALTSGVHTFPAVLQSSGLYSLSSVVTVPSSSLGTQTYICNVNHKPSNTKVDKKVEPKSCDKTHTCPPCPAPELLGGPSVFLFPPKPKDTLYITREPEVTCVVVDVSHEDPEVKFNWYVDGVEVHNAKTKPREEQYNSTYRVVSVLTVLHQDWLNGKEYKCKVSNKALPAPIEKTISKAKGQPREPQVYTLPPSRDELTKNQVSLTCLVKGFYPSDIAVEWESNGQPENNYKTTPPVLDSDGSFFLYSKLTVDKSRWQQGNVFSCSVMHEALHNHYTQKSLSLSPGK
light: B2 light
notes: Mutant human IgG1 (YTE: M252Y, S254T, T256E, EU numbering), human kappa light chain
- Kd [9]: < 0.0518 nM
